According to the RNAGym collection of RNA variant scans (doi:10.1093/molbev/msab373):

B1: Azoarcus group I ribozyme (parent)
chain: GUGCCUUGCGCCGGGAAACCACGCAAGGGAUGGUGUCAAAUUCGGCGAAACCUAAGCGCCCGCCCGGGCGUAUGGCAACGCCGAGCCAAGCUUCGGCGCCUGCGCCGAUGAAGGUGUAGAGACUAGACGGCACCCACCUAAGGCAAACGCUAUGGUGAAGGCAUAGUCCAGGGAGUGGCGAAAGUCACACAAACCGG

Variants of: B1
Experiment: reverse-splicing fitness (ratio to wild type); higher = more active; in vitro selection; Mg2+ level not given
Outline: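 An in vitro group I ribozyme library with randomized positions was T7-transcribed and gel-purified. In triplicate, 10 pmol RNA in EPPS pH 7.5 was reacted with 50 pmoles of a 30-nt RNA substrate for 1 h at 37 °C across several added MgCl2 levels (1–48 mM), then stopped with EDTA. Products were reverse transcribed from a substrate-complementary primer, PCR-amplified and sequenced (HiSeq 4000). Fitness is a variant's read proportion after selection over that before, normalised to wild type.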

Variant | reverse-splicing fitness
C82U A111G A120C A145C C150A U176C | 0.00767
C82U A111G A120C A145C C150A U176A | 0.00938
C82U A111C C150U | 0.123
C82U A111C C150U C169G U176G | 0.00752
C82U A111C C150U C169G U176C | 0.0161
C82U A111C C150U C169G U176A | 0.0119
C82U A111G A120C A145C C150U U176C | 0.0114
C82U A111G A120C A145C C150U U176A | 0.0105
C82U A111G A120C A145C C150U U176G | 0.00465
C82U A111G A120C A145G C150A C169G | 0.0105
C82U A111G A120C A145G C150A C169A | 0.00928
C82U A111G A120C A145G C150A C169U | 0.0111
C82U A111G A120C A145C C150G C169G U176C | 0.004
C82U A111G A120C A145C C150G C169G U176G | 0.00397
C82U A111G A120C A145C C150G C169G U176A | 0.00761
C82U A111G A120C A145G C150A U176A | 0.0119
C82U A111G A120C A145G C150A U176G | 0.00727
C82U A111G A120C A145G C150A U176C | 0.0246
C82U A111G A120C A145C | 0.0519
C82U A111G A120C A145G | 0.0552
C82U A111C C169A | 0.00958

Variant | reverse-splicing fitness
C82U A111C C169G | 0.00866
C82U A111C C169U | 0.0123
C82U A111G A120C A145G C169A U176G | 0.00336
C82U A111G A120C A145G C169A U176A | 0.0153
C82U A111G A120C A145G C169A U176C | 0.0205
C82U A111G A120C A145G C169G | 0.00801
C82U A111G A120C A145G C169A | 0.00713
C82U A111C C169U U176G | 0.00681
C82U A111C C169U U176C | 0.0146
C82U A111C C169U U176A | 0.0179
C82U A111G A120C A145G C150A C169U U176C | 0.014
C82U A111G A120C A145G C150A C169U U176A | 0.015
C82U A111G A120C A145G C150A C169U U176G | 0.00508
C82U A111G A120C A145C C150G C169A U176C | 0.00573
C82U A111G A120C A145C C150G C169A U176A | 0.00643
C82U A111G A120C A145C C150G C169A U176G | 0.00425
C82U A111C C150G C169U U176A | 0.00814
C82U A111C C150G C169U U176C | 0.0111
C82U A111C C150G C169U U176G | 0.00577
C82U A111G A120C A145C C150G C169U U176A | 0.00787
C82U A111G A120C A145C C150G C169U U176G | 0.00424

Variant | reverse-splicing fitness
C82U A111G A120C A145C C150G C169U U176C | 0.0112
C82U A111G A120C A145C C169A | 0.00548
C82U A111G A120C A145C C169U | 0.0106
C82U A111G A120C A145C C169G | 0.00713
C82U A111G A120C A145G C169G U176G | 0.00407
C82U A111G A120C A145G C169G U176C | 0.0179
C82U A111G A120C A145G C169G U176A | 0.0181
C82U A111G A120C A145G C150U C169U U176C | 0.0127
C82U A111G A120C A145G C150U C169U U176G | 0.00448
C82U A111G A120C A145G C150U C169U U176A | 0.0147
C82U A111G A120C A145G C150G C169G U176G | 0.00471
C82U A111G A120C A145G C150G C169G U176C | 0.00625
C82U A111G A120C A145G C150G C169G U176A | 0.00909
C82U A111C C150U C169U U176A | 0.0192
C82U A111C C150U C169U U176G | 0.00713
C82U A111C C150U C169U U176C | 0.0145
C82U A111G A120C A145G C150A C169G U176C | 0.0213
C82U A111G A120C A145G C150A C169G U176G | 0.00547
C82U A111G A120C A145G C150A C169G U176A | 0.0237
C82U A111G A120C A145C C150G C169U | 0.00749
C82U A111G A120C A145C C150G C169A | 0.0076

Variant | reverse-splicing fitness
C82U A111G A120C A145C C150G C169G | 0.00679
C82U A111C C150U C169U | 0.0116
C82U A111C C150U C169G | 0.00731
C82U A111C C150U C169A | 0.00914
C82U A111G A120C A145C C150A C169A U176C | 0.00523
C82U A111G A120C A145C C150A C169A U176G | 0.00444
C82U A111G A120C A145C C150A C169A U176A | 0.0104
C82U A111G A120C A145C C150U C169U U176G | 0.00402
C82U A111G A120C A145C C150U C169U U176A | 0.0144
C82U A111G A120C A145C C150U C169U U176C | 0.00942
C82U A111C C150G C169A U176G | 0.00672
C82U A111C C150G C169A U176C | 0.00957
C82U A111G A120C A145C C150U C169G U176A | 0.0173
C82U A111G A120C A145C C150U C169G U176G | 0.00444
C82U A111G A120C A145C C150U C169G U176C | 0.00801
C82U A111C C150G U176C | 0.0147
C82U A111C C150G U176G | 0.00363
C82U A111C C150G U176A | 0.00801
C82U A111G A120C A145C C169U U176G | 0.0032
C82U A111G A120C A145C C169U U176A | 0.0142
C82U A111G A120C A145C C169U U176C | 0.0107
